Measured values taken from patent publication US20240190946A1 (AUGMENTA BIOWORKS, published 2024).

Legend:
[1] = biological target: SARS-COV-2 spike (1+2) protein on pseudotyped lentivirus (SARS-COV-2, UniProt P0DTC2 14-1273); assay: cell-based or functional assay
[2] = biological target: T1, Sino CoV2 S2 (spike protein 2) (SARS-COV-2, UniProt P0DTC2 686-1213); assay: Carterra LSA; Carterra LSA
T1 construct: domain: S2 (spike protein 2)

[3] = biological target: T1, Sino CoV2 S2 (spike protein 2); assay: Carterra LSA
[4] = biological target: T2, Sino SARS1 S1 (SARS1, UniProt P59594 14-667); assay: Carterra LSA
T2 construct: domain: S1

[5] = biological target: T3, Sino CoV2 RBD (Receptor Binding Domain) (SARS-COV-2, UniProt P0DTC2 319-541); assay: Carterra LSA
[6] = biological target: T3, Sino CoV2 RBD (Receptor Binding Domain); assay: Carterra LSA; Carterra LSA
[7] = biological target: T3, Sino CoV2 RBD (Receptor Binding Domain); assay: ForteBio; ForteBio
[8] = biological target: T1, Sino CoV2 S2 (spike protein 2); assay: ForteBio; ForteBio
[9] = biological target: T4, NAC CoV2 S1 (SARS-COV-2, UniProt P0DTC2 14-674); assay: instrument not stated
T4 construct: domain: S1

[10] = biological target: T3, Sino CoV2 RBD (Receptor Binding Domain); assay: instrument not stated

B1: SC2 antibody 3387 (antibody, V domains shown)
VH: QVQLVQSGAEVMQVGASVKVSCKASGYTFTSYGISWVRQAPGQGLEWMGWINTYNGNTNYAQKLQGRVTMTTDTSTTTAYMELRSLRSDDTAVYYCARVAVGYCSGGSCYYFDYWGQGTLVTVSS
VL: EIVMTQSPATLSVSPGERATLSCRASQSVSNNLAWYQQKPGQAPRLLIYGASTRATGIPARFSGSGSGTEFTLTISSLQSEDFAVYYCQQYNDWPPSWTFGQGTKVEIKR
In the case of B1, the “neutralization of infection of HEK293 cells by spike-pseudotyped lentivirus” value (“neutralization” below) [1] is reported as about 45%.

B2: SC2 antibody 3388 (antibody, V domains shown)
VH: QVQLVESGGGVVQPGRSLRLSCAASGFTFSSYAMHWVRQAPGKGLEWVAVISYDGSNKYYADSVKGRFTISRDNSKNTLYLQMNSLRAEDTAVYYCAREGNIVATISLDYWGQGTLVTVSS
VL: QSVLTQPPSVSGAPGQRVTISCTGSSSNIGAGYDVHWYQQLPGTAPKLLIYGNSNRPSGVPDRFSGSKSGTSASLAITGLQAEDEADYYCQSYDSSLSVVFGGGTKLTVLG
notes: also called Anti-SARS-COV-2 antibody 3388
For B2, the Kd [2] was 10 nM.

B3: SC2 antibody 3947 (antibody, V domains shown)
VH: QLQLQESGSGLVKPSQTLSLTCAVSGGSVSSGGYSWSWIRQPPGKGLEWIGYIYDSGITSYNPSLKSRLTISIDRSKNQFSLGLSSVTAADTAVYYCARVRRNTSGSFSTGHFDYWGQGTLVTVSS
VL: QSVLTQPPSVSASPGQTVTISCSGSTSNIGGNYVSWYQHLPGTAPKLLIYDSNKRPSGIPDRFSGSKSGTSATLGITGLQTEDEADYYCGTWDYRLSGAVFGGGTKLTVL
notes: also called Anti-SARS-COV-2 antibody 3947
For B3, the Kd [3] was 25 nM.

B4: SC2 antibody 4083 (antibody, V domains shown)
VH: QLQLQESGSGLVKPSQTLSLTCAVSGGSVSSGGYSWSWIRQPPGKGLEWIGYIYDSGITSYNPSLKSRLTISIDRSKNQFSLGLSSVTAADTAVYYCARVRRNTSGSFSTGHFDYWGQGTLVTVSS
VL: QSVLTQPPSVSAVPGQKVTISCSGNNSNIGNNLVSWYQQLPGTAPKLLIYNNNRRPSGIPDRFSGSKSGTSATLGITGLQTGDEAAYYCAARDSSLSAVVFGGGTKLTVL
notes: also called Anti-SARS-COV-2 antibody 4083
In the case of B4, the Kd [3] is reported as 41 nM.

B5: SC2 antibody 3969 (antibody, V domains shown)
VH: QVQLVESGGGVVQPGRSLRLSCAASGFTFSSYGMHWVRQAPGKGLEWVAVISYDGSNKYYADSVKGRFTISRDNSKNTLYLQMNSLRAEDTAVYYCAKGVGDYAVWGQGTLVTVSS
VL: QSALTQPASVSGSPGQSITISCTGTNSDIGGYDYVSWYQQHPGKAPKLMIFDVNNRPSGVSNRFSGSKSGNTASLTISELQSADEADYFCSSFSTRNSLVVFGGGTKLTVL
notes: also called Anti-SARS-COV-2 antibody 3969
With B5 the Kd [4] was 28 nM and the Kd [5] was 105 nM.

B6: anti-SARS-COV-2 (SC2) antibody 3417 (antibody, V domains shown)
VH: QVQLQESGPGLLKPSQTLSLTCTVSGVSIRNSNYFWNWIRRPAGKGLEWIGRMHSGGTTNYNPSLKSRVTVSSDAARNQFSLELTSVTAADTAVYYCARDDPLNRFAAFQIWGRGTLVTVSS
VL: QSVLTQPPSVSAAPGQKVTISCSGSSSNIGNKYISWYQQLPGTAPKLLIYDNNKRPSGIPDRFSGSKSGTSATLGITGLQTGDEADYYCGTWDSSLSVFYVFGTGTKVTVLG
notes: also called SC2 Ab 3417
B6 showed a Kd [2] of 63 nM, a Kd [6] of 7.2 nM and a Kd [7] of under 0.001 nM. The “neutralization” value [1] was about 70%.

B7: SC2 antibody 3396 (antibody, V domains shown)
VH: GVQLVESGGGLVQPGRSLRVSCAASGFTFADYAMHWVRQAPGKGLEWVSGISWNSGNIAYADSVKGRFTISRDNAKNSLYLQMDSLRPDDTALYYCVKASTLYYYFYMDVWGKGTTVTVSS
VL: QSALTQPPSASGSPGQSVTISCTGTSSDVGGYDYVSWYQQHPGKAPKFMIYEVSKRPSGVPDRFSGSKSGNTASLTVSGLQAEDEADYYCCSYAGSNNYVFGTGTKVTVLG
notes: also called Anti-SARS-COV-2 antibody 3396
In the case of B7, the Kd [8] is reported as 122 nM, the Kd [7] is reported as 22 nM and the “neutralization” value [1] is reported as about 50%.

B8: SC2 antibody 3908 (antibody, V domains shown)
VH: EVQLVESRGGLVQPGGSLRLSCAATGFTLSSFDMHWVRQATGKGLEWVSAIGTAGDTYYPGSVKGRFTISRENAKNSLYLQMNSLRAGDTAVYYCARGTWLRDYNFWSGYNYYFDYWGQGTLVTVSS
VL: QSALTQPPSASGSPGQSVTISCTGTSSDVGGYIYVSWYQQHPGKAPKLIIYEVSKRPSGVPDRFSGSKSGNTASLTVSGLQAEDEADYYCSSYADSNNYVFGSGTRVTVLG
notes: also called Anti-SARS-COV-2 antibody 3908
In the case of B8, the Kd [8] is reported as 74 nM.

B9: SC2 antibody 3705 (scFv)
scFv: LEIVMTQSPATLSVSPGERATLSCRASQSVSNNLAWYQQKPGQAPRLLIYGASTRATGIPARFSGSGSGTEFTLTISSLQSEDFAVYYCQQYNDWPPSWTFGQGTKVEIKGGGGSGGGGSGGGGSQVQLVQSGAEVMQVGASVKVSCKASGYTFTSYGISWVRQAPGQGLEWMGWINTYNGNTNYAQKLQGRVTMTTDTSTTTAYMELRSLRSDDTAVYYCARVAVGYCSGGSCYYFDYWGQGTLVTVSSGGGGSGGQHHHHHHGAEQKLISEEDLGSGKPIPNPLLGLDSTS
notes: also called Anti-SARS-COV-2 antibody 3705
B9 was tested, and the Kd [9] was 57 nM, the Kd [10] was 1.3 nM and the “neutralization” value [1] was 100%.
